According to patent US20200262920A1 (AMPHIVENA THERAPEUTICS, published 2020):
Where a chain is given by its changes, count along the chain named. Values joined by “and” are separate entries in the source; they are usually repeats but may differ in a detail not shown here. Identical values can stand only once. Each block holds one binder with its values, some of them ahead of it.

Tests used:
human CD33 [1] = molecular target: T1, human CD33 (human, UniProt P20138 18-364); test: cell-based or functional assay
T1 sequence (P20138 18-364): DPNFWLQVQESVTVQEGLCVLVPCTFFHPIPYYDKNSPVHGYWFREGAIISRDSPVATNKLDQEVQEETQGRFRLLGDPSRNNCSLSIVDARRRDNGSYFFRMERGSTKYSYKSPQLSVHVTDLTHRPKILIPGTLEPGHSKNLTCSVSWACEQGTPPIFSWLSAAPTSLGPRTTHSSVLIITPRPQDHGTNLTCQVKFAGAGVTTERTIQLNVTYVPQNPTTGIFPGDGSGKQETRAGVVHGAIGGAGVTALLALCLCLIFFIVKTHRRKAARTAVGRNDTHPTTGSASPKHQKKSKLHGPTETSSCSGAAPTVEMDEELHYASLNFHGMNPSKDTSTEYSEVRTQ

human CD33 [2] = molecular target: T1, human CD33; test: cell-based or functional assay; remark: listed apart in the source
human CD33 [3] = molecular target: T1, human CD33; test: cell-based or functional assay; remark: listed apart in the source
human CD3 [4] = molecular target: T2, human CD3 (human, UniProt P07766 23-207; P09693 23-182; P04234 22-171; P20963 22-164); test: cell-based or functional assay
T2 sequence (P07766 23-207, chain 1 of 4): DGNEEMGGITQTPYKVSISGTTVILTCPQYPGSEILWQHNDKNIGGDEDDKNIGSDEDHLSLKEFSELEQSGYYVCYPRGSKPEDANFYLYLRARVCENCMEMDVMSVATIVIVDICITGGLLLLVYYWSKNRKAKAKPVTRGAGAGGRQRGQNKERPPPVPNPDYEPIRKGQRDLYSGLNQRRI
T2 sequence (P09693 23-182, chain 2 of 4): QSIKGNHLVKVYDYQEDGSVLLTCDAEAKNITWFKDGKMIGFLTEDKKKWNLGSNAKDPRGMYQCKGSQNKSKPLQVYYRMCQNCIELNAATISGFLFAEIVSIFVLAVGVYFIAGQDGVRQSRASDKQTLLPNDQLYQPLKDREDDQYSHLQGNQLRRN
T2 sequence (P04234 22-171, chain 3 of 4): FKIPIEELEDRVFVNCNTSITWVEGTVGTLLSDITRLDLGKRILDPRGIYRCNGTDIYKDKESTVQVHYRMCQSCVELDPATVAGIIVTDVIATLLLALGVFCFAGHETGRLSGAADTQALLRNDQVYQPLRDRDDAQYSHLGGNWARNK
T2 sequence (P20963 22-164, chain 4 of 4): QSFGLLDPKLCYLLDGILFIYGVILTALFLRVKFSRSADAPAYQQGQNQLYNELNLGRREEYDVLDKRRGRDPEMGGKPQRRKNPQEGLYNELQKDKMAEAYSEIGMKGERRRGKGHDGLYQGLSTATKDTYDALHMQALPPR

human CD33 [5] = molecular target: T1, human CD33; test: cell-based or functional assay; remark: listed apart in the source
human CD33 [6] = molecular target: T1, human CD33; test: flow cytometry, HL-60 cells
human CD3 [7] = molecular target: T2, human CD3; test: flow cytometry, human T-cells
human CD33 [8] = molecular target: T1, human CD33; test: flow cytometry titration, KG-1 cells
Procedure, shortened: (§1)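 Cells titrated with CD33/CD3 2×2 T-cell engagers, detected via anti-His then FITC anti-mouse IgG on ice, with PI exclusion of dead cells. Background-subtracted mean fluorescence fit to one-site binding for KD; cross-reactivity ratio from KDs on CHO cells expressing recombinant cynomolgus or human CD33.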

human CD33 [9] = molecular target: T1, human CD33; test: flow cytometry titration, HL-60 cells
Procedure, shortened: as §1

human CD33 [10] = molecular target: T1, human CD33; test: flow cytometry titration, U-937 cells
Procedure, shortened: as §1

human CD3 [11] = molecular target: T2, human CD3; test: flow cytometry titration, T cells (human CD3+)
human CD33 [12] = molecular target: T1, human CD33; test: cell-based or functional assay; remark: listed apart in the source
cynomolgus CD33 = molecular target: T3, cynomolgus CD33 (cynomolgus, UniProt A0A7N9ICR5 17-359); test: ratio of KD by flow cytometry on CHO cells expressing cynomolgus CD33 vs human CD33
T3 construct: whole, on cells; also called cynoCD33; cyno CD33
Description: Cells were incubated with 100 μL of serial dilutions of CD33/CD3 2×2 T-cell engagers. After washing three times with FACS buffer the cells were incubated with 0.1 mL of 10 μg/mL mouse monoclonal anti-His antibody in the same buffer for 45 min on ice. After a second washing cycle, the cells were incubated with 0.1 mL of 15 μg/mL FITC-conjugated goat anti-mouse IgG antibodies under the same conditions as before. As a control, cells were incubated with the anti-His IgG followed by the FITC-conjugated goat anti-mouse IgG antibodies without anti-CD33 2×2 T-cell engagers. The cells were then washed again and resuspended in 0.2 mL of FACS buffer containing 2 μg/mL propidium iodide (PI) in order to exclude dead cells. The fluorescence of 1×10⁴ living cells was measured using a Beckman-Coulter FC500 MPL flow cytometer using the MXP software (Beckman-Coulter, Krefeld, Germany) or a Millipore Guava EasyCyte flow cytometer using the Incyte software (Merck Millipore, Schwalbach, Germany). Mean fluorescence intensities of the cell samples were calculated using CXP software (Beckman-Coulter, Krefeld, Germany) or Incyte software (Merck Millipore, Schwalbach, Germany). After subtracting the fluorescence intensity values of the cells stained with the secondary and tertiary reagents alone the values were used for calculation of the KD values with the equation for one-site binding (hyperbola) of the GraphPad Prism (version 6.00 for Windows, GraphPad Software, La Jolla Calif. USA).
CD3 binding affinity and crossreactivity were evaluated in titration and flow cytometric experiments on CD3⁺ Jurkat cells (provided by Dr. Moldenhauer, DKFZ Heidelberg; human acute T-cell leukemia) and the cynomolgus CD3⁺ HSC-F cell line (JCRB, cat.:JCRB 1164). […] The KD ratio of crossreactivity was calculated using the KD values determined on the CHO cell lines expressing either recombinant human or recombinant cynomolgus antigens.

IC50, lysis of KG-1 cells with human T cells (human CD33 [1]): ~0.01 pM
CD25 Induction EC50 (human CD3 [4]): 6 pM
CD69 Induction EC50 (human CD3 [4]): 3 pM
T cell Proliferation in PBMC EC50 (human CD3 [4]): 2 pM
EC50 (mean), redirected lysis of BV-173 cells (human CD33 [5]): 1.4 pM
EC50 (mean), redirected lysis of CHO-CD33 cells (human CD33 [5]): 11.8 pM
EC50 (mean), redirected lysis of HL-60 cells (human CD33 [5]): 1.4 pM
EC50 (mean), redirected lysis of K562 cells (human CD33 [5]): 4.5 pM
EC50 (mean), redirected lysis of KASUMI-1 cells (human CD33 [5]): 1.3 pM
EC50 (mean), redirected lysis of KG-1 cells (human CD33 [5]): 1 pM
EC50 (mean), redirected lysis of RPMI-8226 cells (human CD33 [5]): 14 pM
EC50 (mean), redirected lysis of THP-1 cells (human CD33 [5]): 1.9 pM
EC50 (mean), redirected lysis of U-937 cells (human CD33 [5]): 0.9 pM
Kd (human CD33 [6]): 300 pM
Kd (human CD3 [7]): 1500 pM
Kd (human CD33 [8]): 900 pM
Kd (human CD33 [9]): 300 pM
Kd (human CD33 [10]): 500 pM
Kd (human CD3 [11]): 1500 pM
B1: CD33/CD3 2×2 T-cell engager 12 (bispecific antibody)
chain: DIQMTQSPSSLSASVGDRVTITCRSSTGAVTTSNYANWVQQKPGKAPKALIGGTNKRAPGVPSRFSGSLIGDKATLTISSLQPEDFATYYCALWYSNLWVFGQGTKVEIKGGSGGSQVQLVQSGAEVKKPGASVKVSCKASGYTFTSYDINWVRQAPGQGLEWMGWMNPNSGNTGFAQKFQGRVTMTRDTSTSTVYMELSSLRSEDTAVYYCARDRAVTDYYYGMDVWGQGTLVTVSSGGSGQSVLTQPPSASGTPGQRVTISCSGSRSNIGSNTVNWYQQLPGTAPKLLIYGNNQRPSGVPDRFSGSKSGTSASLAISGLQSEDEADYYCATWDDSLIGWVFGGGTKLTVLGGSGGSEVQLVESGGGLVQPGGSLRLSCAASGFTFSTYAMNWVRQAPGKGLEWVGRIRSKYNNYATYYADSVKDRFTISRDDSKNSLYLQMNSLKTEDTAVYYCARHGNFGNSYVSYFAYWGQGTLVTVSSAAAGSHHHHHH
notes: Non-covalent homodimer; also called tandom diabody 12
EC50 on HL-60 (cytotoxicity) (human CD33 [2]): 1.3 pM
EC50, cytotoxicity on HL-60 (human CD33 [3]): 1.3 pM and 137 pg/mL
EC50, cytotoxicity on KG-1 (human CD33 [3]): 1.2 pM and 126 pg/mL
EC50, cytotoxicity on U-937 (human CD33 [3]): 0.8 pM and 84 pg/mL
EC50, cytotoxicity, mean of HL-60, U-937, KG-1 (human CD33 [3]): 1.1 pM and 116 pg/mL

IC50, lysis of KG-1 cells (separate experiment) (human CD33 [1]): 5 pM
IC50, lysis of KG-1 cells with human T cells (human CD33 [1]): ~0.5 pM
CD25 Induction EC50 (human CD3 [4]): 1 pM
CD69 Induction EC50 (human CD3 [4]): 2 pM
T cell Proliferation in PBMC EC50 (human CD3 [4]): 3 pM
EC50 (mean), redirected lysis of BV-173 cells (human CD33 [5]): 3.2 pM
EC50 (mean), redirected lysis of CHO-CD33 cells (human CD33 [5]): 24 pM
EC50 (mean), redirected lysis of HL-60 cells (human CD33 [5]): 1.6 pM
EC50 (mean), redirected lysis of K562 cells (human CD33 [5]): 4.8 pM
EC50 (mean), redirected lysis of KASUMI-1 cells (human CD33 [5]): 2.4 pM
EC50 (mean), redirected lysis of KG-1 cells (human CD33 [5]): 1.9 pM
EC50 (mean), redirected lysis of RPMI-8226 cells (human CD33 [5]): 2.8 pM
EC50 (mean), redirected lysis of THP-1 cells (human CD33 [5]): 6 pM
EC50 (mean), redirected lysis of U-937 cells (human CD33 [5]): 1.3 pM
EC50, calcein-release lysis of HL-60, 30 min incubation (human CD33 [12]): 4.8 pM
EC50, calcein-release lysis of HL-60, 60 min incubation (human CD33 [12]): 2.5 pM
EC50, calcein-release lysis of HL-60, 120 min incubation (human CD33 [12]): 1.6 pM
EC50, calcein-release lysis of HL-60, 180 min incubation (human CD33 [12]): 1.6 pM
EC50, calcein-release lysis of HL-60, 240 min incubation (human CD33 [12]): 1.5 pM
EC50, calcein-release lysis of HL-60, 300 min incubation (human CD33 [12]): 1.6 pM
Kd (human CD33 [6]): 300 pM
Kd (human CD3 [7]): 5100 pM
Kd (human CD33 [8]): 200 pM
Kd (human CD33 [9]): 300 pM
Kd (human CD33 [10]): 300 pM
Kd (human CD3 [11]): 2100 pM
B2: CD33/CD3 2×2 T-cell engager 16 (bispecific antibody)
chain: B1 chain with V218N, Y222S, Y223L
notes: Non-covalent homodimer; also called AMV564; AMV 564
EC50 on HL-60 (cytotoxicity) (human CD33 [2]): 1.5 pM
EC50, cytotoxicity on HL-60 (human CD33 [3]): 1.5 pM and 158 pg/mL
EC50, cytotoxicity on KG-1 (human CD33 [3]): 1.8 pM and 189 pg/mL
EC50, cytotoxicity on U-937 (human CD33 [3]): 1.9 pM and 200 pg/mL
EC50, cytotoxicity, mean of HL-60, U-937, KG-1 (human CD33 [3]): 1.7 pM and 179 pg/mL

IC50, lysis of KG-1 cells with human T cells (human CD33 [1]): ~5 pM
CD25 Induction EC50 (human CD3 [4]): 9 pM
CD69 Induction EC50 (human CD3 [4]): 5 pM
T cell Proliferation in PBMC EC50 (human CD3 [4]): 6 pM
Kd (human CD33 [6]): 2800 pM
Kd (human CD3 [7]): 6300 pM
Kd (human CD33 [8]): 3600 pM
Kd (human CD33 [9]): 2800 pM
Kd (human CD33 [10]): 5400 pM
Kd (human CD3 [11]): 6300 pM
KD ratio cynoCD33/huCD33 (cynomolgus CD33): 37.3
B3: CD33/CD3 2×2 T-cell engager 19 (bispecific antibody)
chain: DIQMTQSPSSLSASVGDRVTITCRSSTGAVTTSNYANWVQQKPGKAPKALIGGTNKRAPGVPSRFSGSLIGDKATLTISSLQPEDFATYYCALWYSNLWVFGQGTKVEIKGGSGGSQVQLVQSGAEVKKPGASVKVSCKASGYTFTSYYMHWVRQAPGQGLEWMGIINPSGGSTSYAQKFQGRVTMTRDTSTSTVYMELSSLRSEDTAVYYCARDVVPAAIDYYGMDVWGQGTTVTVSSGGSGQSVLTQPPSASGTPGQRVTISCSGSSSNIGSNTVNWYQQLPGTAPKLLIYSDNQRPSGVPDRFSGSKSGSSASLAISGLQSDDEADYYCATWDDSLNGAVFGGGTKLTVLGGSGGSEVQLVESGGGLVQPGGSLRLSCAASGFTFSTYAMNWVRQAPGKGLEWVGRIRSKYNNYATYYADSVKDRFTISRDDSKNSLYLQMNSLKTEDTAVYYCARHGNFGNSYVSYFAYWGQGTLVTVSSAAAGSHHHHHH
notes: Non-covalent homodimer
EC50 on HL-60 (cytotoxicity) (human CD33 [2]): 5.7 pM
